This note sets out measurements from article PMC2896262 (Structure (London, England : 1993), 2009).

The data set “crystal structure” concerns the molecule itself. The experiment in a line: crystal structure.
The target in a further data set is T1, soNrtR (Shewanella oneidensis, UniProt Q8EFJ3 1-237).
T1 sequence: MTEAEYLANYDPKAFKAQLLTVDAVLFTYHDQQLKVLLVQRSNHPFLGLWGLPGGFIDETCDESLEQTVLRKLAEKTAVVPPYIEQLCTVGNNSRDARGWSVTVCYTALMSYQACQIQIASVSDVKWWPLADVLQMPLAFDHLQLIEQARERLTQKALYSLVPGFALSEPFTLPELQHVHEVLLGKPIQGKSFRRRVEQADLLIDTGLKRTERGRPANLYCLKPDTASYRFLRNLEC
The experiment in a line: X-ray crystal structure.

B1: N-terminal domain of soNrtR (residues 1-159) (domain or fragment, Shewanella oneidensis, UniProt Q8EFJ3 1-159, looked up)
chain: MTEAEYLANYDPKAFKAQLLTVDAVLFTYHDQQLKVLLVQRSNHPFLGLWGLPGGFIDETCDESLEQTVLRKLAEKTAVVPPYIEQLCTVGNNSRDARGWSVTVCYTALMSYQACQIQIASVSDVKWWPLADVLQMPLAFDHLQLIEQARERLTQKALY
On to B1, for which, in “crystal structure”, the “stoichiometry N” value was 2.

B2: 28-nt NrtR-box DNA (dsDNA)
DNA 1: CGTAATAGTGTCTTAAAGACACTATTAC
DNA 2: CGTAATAGTGTCTTTAAGACACTATTAC
Take B2: the binding result in the data set with soNrtR is given as “binds”.
